Target: protein interacting with C kinase 1 (PICK1), recombinant full-length (UniProt Q9EP80)
Assay: fluorescence polarisation

Chain of UniProt Q9EP80 (Q9EP80 whole entry): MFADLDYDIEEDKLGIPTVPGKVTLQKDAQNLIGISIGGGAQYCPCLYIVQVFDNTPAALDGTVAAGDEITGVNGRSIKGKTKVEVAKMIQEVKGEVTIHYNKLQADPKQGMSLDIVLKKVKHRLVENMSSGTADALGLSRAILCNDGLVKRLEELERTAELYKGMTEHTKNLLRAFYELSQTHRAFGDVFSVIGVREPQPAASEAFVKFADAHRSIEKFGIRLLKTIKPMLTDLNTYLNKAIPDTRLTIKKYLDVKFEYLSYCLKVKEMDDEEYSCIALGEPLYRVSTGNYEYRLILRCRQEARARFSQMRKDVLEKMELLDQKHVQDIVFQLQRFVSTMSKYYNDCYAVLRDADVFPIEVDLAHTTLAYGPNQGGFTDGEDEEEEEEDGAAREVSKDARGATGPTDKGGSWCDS

In the case of unlabeled GluA2 peptide, the Ki is reported as 24 µM.
